From patent US20230212319A1, “NOVEL ANTIGEN BINDING DOMAINS AND SYNTHETIC ANTIGEN RECEPTORS INCORPORATING THE SAME” (University of Southern California, priority 2020, published 2023)

Tests used:
RAJI cells = assay: JNG assay, co-culture with RAJI cells; assay type: cell-based; conditions: JNG cells expressing construct, co-culture with Raji
In short: (§1)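 Jurkat NFAT-GFP (JNG) cells stably transduced with SARs by lentivirus, with drug selection where the construct carried a resistance gene, then co-cultured with target cells at E:T ~1:2 for ~4–18 h. % GFP-positive cells measured by FACS against parental JNG; +/- to 5+ correspond to ~5–50% GFP-positive.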

L363 cells = assay: JNG assay, co-culture with L363 cells; assay type: cell-based; conditions: co-culture with L363
In short: as §1

B1: 22165 (protein)
chain: MALPVTALLLPLALLLHAARPACEVQLLESGGGLIQPGGSLRLSCAASGFTFSSHAMTWVRQAPGKGLEWVSAISGSGDYTHYADSVKGRFTISRDNSKNTVYLQMNSLRAEDSAVYYCAKDEDGGSLLGHRGQGTLVTVSSGTGGGGSGGGGSGGGGSEFDIQMTQSPSSLSASVGDRVTITCKASDHINNWLAWYQQKPGQAPKLLIYGATTLETGVPSRFSGSGSGTDYTLTISSLQPEDFATYYCQQSWNTPWTFGQGTKLEIKRLEDLKNVFPPEVAVFEPSEAEISHTQKATLVCLATGFYPDHVELSWWVNGKEVHSGVCTDPQPLKEQPALNDSRYCLSSRLRVSATFWQNPRNHFRCQVQFYGLSENDEWTQDRAKPVTQIVSAEAWGRADCGFTSESYQQGVLSATILYEILLGKATLYAVLVSALVLMAMVKRKDSRGRAKRSGSGATNFSLLKQAGDVEENPGPTSATMDWIWRILFLVGAATGAHSGPEVQLVESGGGLVQAGGSLRLSCAASGRTFSMGWFRQAPGKEREFVAAITYSGGSPYYADSVKGRFTISRDNAKNTVYLQMNSLKPEDTAVYYCAANPTYGSDWNAENWGQGTQVTVSSGSGGGGSGGGGSGGGGSFEQVQLQQPGAELVKPGASVKMSCKASGYAFSSYWINWMKQKPGQGLEWIGQIYPGDGDTNYNGKFKGRATLTADTSSSTAYMQLSSLTSEDSAVYFCARSITTVVGCAMDYWGQGTSVTVSSTRIQNPDPAVYQLRDSKSSDKSVCLFTDFDSQTNVSQSKDSDVYITDKCVLDMRSMDFKSNSAVAWSNKSDFACANAFNNSIIPEDTFFPSPESSCDVKLVEKSFETDTNLNFQNLSVIGFRILLLKVAGFNLLMTLRLWSSRAKRSGSGVKQTLNFDLLKLAGDVESNPGPSRGHMTEYKPTVRLATRDDVPRAVRTLAAAFADYPATRHTVDPDRHIERVTELQELFLTRVGLDIGKVWVADDGAAVAVWTTPESVEAGAVFAEIGPRMAELSGSRLAAQQQMEGLLAPHRPKEPAWFLATVGVSPDHQGKGLGSAVVLPGVEAAERAGVPAFLETSAPRNLPFYERLGFTVTADVEVPEGPRTWCMTRKPGA
NFAT-GFP ASSAY: Raji (RAJI cells): Raji (+), L363 (+) (refer to approximately 5%, 10%, 20%, 30%, 40% and 50% GFP positive cells) | NFAT-GFP ASSAY: L363 (L363 cells): Raji (+), L363 (+) (refer to approximately 5%, 10%, 20%, 30%, 40% and 50% GFP positive cells)
